Measured values: JP2014141434A (dated 2014)

T1: rROBO4−ECD (ヒトROBO4細胞外領域ポリペプチド) (human, UniProt Q8WZ75 28-461)
T1 construct: It was cloned in pEF6/V5-His-TOPO; also called ヒトROBO4−ECD; rROBO4-ECD
T1 sequence: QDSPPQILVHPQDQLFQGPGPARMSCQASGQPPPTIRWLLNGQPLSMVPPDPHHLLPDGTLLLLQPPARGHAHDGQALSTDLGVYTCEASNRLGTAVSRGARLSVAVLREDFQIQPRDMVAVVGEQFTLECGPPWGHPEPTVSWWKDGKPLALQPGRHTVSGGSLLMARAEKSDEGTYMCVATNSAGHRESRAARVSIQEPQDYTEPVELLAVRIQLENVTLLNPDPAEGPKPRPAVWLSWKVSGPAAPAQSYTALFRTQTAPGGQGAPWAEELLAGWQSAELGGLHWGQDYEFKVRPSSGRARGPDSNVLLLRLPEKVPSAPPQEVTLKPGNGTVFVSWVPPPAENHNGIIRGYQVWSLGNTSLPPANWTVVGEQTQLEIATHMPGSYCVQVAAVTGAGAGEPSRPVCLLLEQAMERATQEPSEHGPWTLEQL


Each binder was assayed against T1, rROBO4−ECD (ヒトROBO4細胞外領域ポリペプチド) (assay: SPR, Biacore 3000; antibody captured by anti-human IgG on CM5 chip, rROBO4-ECD (0.1-200 nM) as analyte, 1:1 model).

| Kd | Binder |
| --- | --- |
| 3.9 nM | ヒト化MAb1抗体 H−1140 (antibody, human IgG2, kappa, V domains shown, Humanised IgG2 / kappa; also called H-1140; hMAb1-H2 / hMAb1-L1) VH: EVQLVESGGGLVQPGGSLRLSCAASGFTFSTYAMSWVRQAPGKGLEWVATISQGGTYTYYPDSVKGRFTISRDNAKNTLYLQMNSLRAEDTAVYYCARLIYYDYLDYWGQGTLVTVSS VL: DIVMTQSPLSLPVTLGEPASISCRSSQSLENSNGNTYLNWYLQKPGQSPQLLIYRVSNRFSGVPDRFSGSGSGTDFTLKISRVEAEDVGVYYCLQVTHVPWTFGPGTKVDIKR |
| 0.41 nM | ヒト化MAb1抗体 H−1040 (antibody, human IgG2, kappa, V domains shown, Humanised IgG2 / kappa; also called H-1040; hMAb1-H1 / hMAb1-L1) VH: EVQLVESGGGLVQPGGSLRLSCAASGFTFSTYAMSWVRQAPGKGLEWVATISNGGTYTYYPDSVKGRFTISRDNAKNTLYLQMNSLRAEDTAVYYCARLIYYDYLDYWGQGTLVTVSS VL: DIVMTQSPLSLPVTLGEPASISCRSSQSLENSNGNTYLNWYLQKPGQSPQLLIYRVSNRFSGVPDRFSGSGSGTDFTLKISRVEAEDVGVYYCLQVTHVPWTFGPGTKVDIKR |
| 0.4 nM | ヒト化MAb1抗体 H−2040 (antibody, human IgG2, kappa, V domains shown, Humanised IgG2 / kappa; also called H-2040; hMAb1-H3 / hMAb1-L1) VH: EVQLVESGGGLVQPGGSLRLSCAASGFTFSTYAMSWVRQAPGKRLEWVATISNGGTYTYYPDSVKGRFTISRDNAKNTLYLQMNSLRAEDTAVYYCARLIYYDYLDYWGQGTLVTVSS VL: DIVMTQSPLSLPVTLGEPASISCRSSQSLENSNGNTYLNWYLQKPGQSPQLLIYRVSNRFSGVPDRFSGSGSGTDFTLKISRVEAEDVGVYYCLQVTHVPWTFGPGTKVDIKR |
